Experimental findings from PMC8040518 (The Journal of Experimental Medicine, 2021) are described below.

In this assay the target is LGTV E protein (strain TP21) in C-prM-E–transfected HEK-293T cells (Langat virus strain TP21, UniProt Q9IG40). Description: cell-based or functional assay.

B1: POWV-80 mAb (antibody, V domains shown)
VH: EVKLVESEGGLVQPGSSMKVSCTASGFTFSHYYMAWVRQVPEKGLEWVANINYDGTSTYYLDSLKSRFIISRDNANNILYLQMSSLKSEDTAIYYCAREEGYGNPYPYWYFDVWGTGTTVTVSS
VL: QIVLTQSPAILSASPGEKVTMTCRASSSVSYMHWYQQKPGSSPKSWIYATSNLASGVPTRFSGSGSGTSYSLTISRVEAEDAATYYCQQRSSNPRTFGGGTKLEIK
B1: the “EC50 of neutralization of LGTV, FRNT in Vero cells” value worked out at 10400 ng/mL.
